Holding throughout (assay): SPR
In test [1] the target is human V158 FcγRIIIa, extracellular region (human, UniProt P08637 17-208).
For test [2], the target named is T1, human FcγRIIb, extracellular region (human, UniProt P31994 43-217).
T1 chain: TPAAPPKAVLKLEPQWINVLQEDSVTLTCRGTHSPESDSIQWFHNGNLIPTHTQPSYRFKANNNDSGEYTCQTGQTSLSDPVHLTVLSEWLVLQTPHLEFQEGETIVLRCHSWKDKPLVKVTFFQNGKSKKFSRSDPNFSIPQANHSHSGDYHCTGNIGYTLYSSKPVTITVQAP

Test [3] addresses T2, human R131 FcγRIIa, extracellular region (human, UniProt P12318 34-217).
T2 chain: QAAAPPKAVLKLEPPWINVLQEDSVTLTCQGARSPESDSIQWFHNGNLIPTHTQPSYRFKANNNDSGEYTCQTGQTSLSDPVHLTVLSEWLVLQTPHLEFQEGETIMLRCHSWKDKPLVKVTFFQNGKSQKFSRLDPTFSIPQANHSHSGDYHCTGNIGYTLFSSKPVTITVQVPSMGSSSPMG

Test [4] has as its target human F158 FcγRIIIa, extracellular region (human, UniProt P08637 17-208).
In test [5] the target is T3, human FcγRI, extracellular region (human, UniProt P12314 16-292).
T3 chain: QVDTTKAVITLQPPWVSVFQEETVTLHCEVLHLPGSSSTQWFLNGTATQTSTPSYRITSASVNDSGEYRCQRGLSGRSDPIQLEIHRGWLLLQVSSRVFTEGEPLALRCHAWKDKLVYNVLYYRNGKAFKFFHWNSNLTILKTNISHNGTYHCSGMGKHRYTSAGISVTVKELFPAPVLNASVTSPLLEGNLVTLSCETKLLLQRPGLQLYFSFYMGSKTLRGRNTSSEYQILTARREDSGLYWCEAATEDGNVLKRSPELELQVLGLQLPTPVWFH

The target in test [6] is T4, human H131 FcγRIIa, extracellular region (human, UniProt P12318 34-217).
T4 chain: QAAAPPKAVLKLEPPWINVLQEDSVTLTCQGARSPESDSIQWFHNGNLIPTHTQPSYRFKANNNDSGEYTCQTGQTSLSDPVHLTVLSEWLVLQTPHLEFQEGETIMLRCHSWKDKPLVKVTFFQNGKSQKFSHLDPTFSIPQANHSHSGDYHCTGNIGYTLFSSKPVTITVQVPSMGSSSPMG

In test [7] the target is T2, human R131 FcγRIIa, extracellular region.
Test [8] addresses T4, human H131 FcγRIIa, extracellular region.

For 4 molecules, Kd results are on record in patent US20170166655A1 (published 2017).

Like-named read-outs stand apart in the source and are kept apart here.

Sequence of human V158 FcγRIIIa, extracellular region (P08637 17-208 F176V): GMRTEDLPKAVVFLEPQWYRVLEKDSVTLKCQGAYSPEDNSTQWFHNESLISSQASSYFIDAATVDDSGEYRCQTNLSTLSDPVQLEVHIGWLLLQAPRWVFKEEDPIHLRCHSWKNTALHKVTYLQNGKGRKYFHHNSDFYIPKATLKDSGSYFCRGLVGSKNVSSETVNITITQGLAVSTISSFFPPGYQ
Sequence of human F158 FcγRIIIa, extracellular region (P08637 17-208): as the sequence (P08637 17-208 F176V) above, with V160F counted along it

B1: IgG2_S239D/I332E (antibody)
chain: ASTKGPSVFPLAPCSRSTSESTAALGCLVKDYFPEPVTVSWNSGALTSGVHTFPAVLQSSGLYSLSSVVTVPSSNFGTQTYTCNVDHKPSNTKVDKTVERKCCVECPPCPAPPVAGPDVFLFPPKPKDTLMISRTPEVTCVVVDVSHEDPEVQFNWYVDGVEVHNAKTKPREEQFNSTFRVVSVLTVVHQDWLNGKEYKCKVSNKGLPAPEEKTISKTKGQPREPQVYTLPPSREEMTKNQVSLTCLVKGFYPSDIAVEWESNGQPENNYKTTPPMLDSDGSFFLYSKLTVDKSRWQQGNVFSCSVMHEALHNHYTQKSLSLSPGK
Consider B1, for which the Kd in test [1] was 30.3 nM; in test [2], 682 nM; in test [3], 128 nM; in test [4], 81.7 nM; in test [5], 24.2 nM; in test [6], 160 nM.

B2: IgG2 WT (antibody)
chain: ASTKGPSVFPLAPCSRSTSESTAALGCLVKDYFPEPVTVSWNSGALTSGVHTFPAVLQSSGLYSLSSVVTVPSSNFGTQTYTCNVDHKPSNTKVDKTVERKCCVECPPCPAPPVAGPSVFLFPPKPKDTLMISRTPEVTCVVVDVSHEDPEVQFNWYVDGVEVHNAKTKPREEQFNSTFRVVSVLTVVHQDWLNGKEYKCKVSNKGLPAPIEKTISKTKGQPREPQVYTLPPSREEMTKNQVSLTCLVKGFYPSDIAVEWESNGQPENNYKTTPPMLDSDGSFFLYSKLTVDKSRWQQGNVFSCSVMHEALHNHYTQKSLSLSPGK
B2: the dissociation constant Kd was determined as 4270 nM in test [3] and 525 nM in test [6].

B3: IgG2_S239D/I332E/G327A (antibody)
chain: ASTKGPSVFPLAPCSRSTSESTAALGCLVKDYFPEPVTVSWNSGALTSGVHTFPAVLQSSGLYSLSSVVTVPSSNFGTQTYTCNVDHKPSNTKVDKTVERKCCVECPPCPAPPVAGPDVFLFPPKPKDTLMISRTPEVTCVVVDVSHEDPEVQFNWYVDGVEVHNAKTKPREEQFNSTFRVVSVLTVVHQDWLNGKEYKCKVSNKALPAPEEKTISKTKGQPREPQVYTLPPSREEMTKNQVSLTCLVKGFYPSDIAVEWESNGQPENNYKTTPPMLDSDGSFFLYSKLTVDKSRWQQGNVFSCSVMHEALHNHYTQKSLSLSPGK
On to B3, for which the Kd came out at 19.4 nM in test [1]; 232 nM in test [2]; 161 nM in test [3]; 36.3 nM in test [4]; 13.2 nM in test [5]; 122 nM in test [6].

B4: WT IgG2 (antibody)
chain: ASTKGPSVFPLAPCSRSTSESTAALGCLVKDYFPEPVTVSWNSGALTSGVHTFPAVLQSSGLYSLSSVVTVPSSNFGTQTYTCNVDHKPSNTKVDKTVERKCCVECPPCPAPPVAGPSVFLFPPKPKDTLMISRTPEVTCVVVDVSHEDPEVQFNWYVDGVEVHNAKTKPREEQFNSTFRVVSVLTVVHQDWLNGKEYKCKVSNKGLPAPIEKTISKTKGQPREPQVYTLPPSREEMTKNQVSLTCLVKGFYPSDIAVEWESNGQPENNYKTTPPMLDSDGSFFLYSKLTVDKSRWQQGNVFSCSVMHEALHNHYTQKSLSLSPGK
In the case of B4, the Kd in test [7] is 4270 nM; in test [8] it was 525 nM.

Usually Kd stands for the free concentration of one partner at which half of the binding sites on the other are occupied at equilibrium, for simple one-to-one binding. Low values mean tighter binding, high ones weaker binding.
